The values below come from patent publication US20220204643A1 (published 2022).

In one assay the target is T1, annexin A1 (human, UniProt P04083 2-346).
T1 construct: on protein array; also called ANXA1
T1 sequence: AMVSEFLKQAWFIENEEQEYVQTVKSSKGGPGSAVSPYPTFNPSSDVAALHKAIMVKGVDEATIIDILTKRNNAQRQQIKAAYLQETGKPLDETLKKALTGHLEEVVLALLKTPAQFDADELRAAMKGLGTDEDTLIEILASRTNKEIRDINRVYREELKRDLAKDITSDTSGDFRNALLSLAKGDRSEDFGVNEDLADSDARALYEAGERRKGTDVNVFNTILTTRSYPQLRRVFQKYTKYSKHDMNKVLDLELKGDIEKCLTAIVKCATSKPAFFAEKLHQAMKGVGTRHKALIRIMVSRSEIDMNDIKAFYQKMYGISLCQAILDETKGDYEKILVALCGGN
Briefly: protein array, with experimental replicate.

Assay [1] addresses T2, DIX domain containing 1, transcript variant 2 (human, UniProt Q155Q3 220-683).
T2 construct: also called DIXDC1
T2 sequence: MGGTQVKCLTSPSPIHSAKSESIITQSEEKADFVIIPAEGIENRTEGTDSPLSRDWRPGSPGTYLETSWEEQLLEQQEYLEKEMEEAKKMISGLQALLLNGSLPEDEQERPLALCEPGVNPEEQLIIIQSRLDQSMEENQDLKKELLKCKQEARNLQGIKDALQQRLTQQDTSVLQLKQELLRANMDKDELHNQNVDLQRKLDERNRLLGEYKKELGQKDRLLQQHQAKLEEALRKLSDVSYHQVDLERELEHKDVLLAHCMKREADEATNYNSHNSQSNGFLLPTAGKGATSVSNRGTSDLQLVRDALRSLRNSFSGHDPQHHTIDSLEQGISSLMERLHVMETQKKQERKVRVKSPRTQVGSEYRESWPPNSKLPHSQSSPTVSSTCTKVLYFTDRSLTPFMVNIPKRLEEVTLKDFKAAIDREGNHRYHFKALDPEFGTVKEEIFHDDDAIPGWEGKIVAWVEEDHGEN

The target of assay [2] is T3, family with sequence similarity 177 member A1, transcript variant 2 (human, UniProt Q8N128 1-213).
T3 construct: on protein array; also called FAM177A1
T3 sequence: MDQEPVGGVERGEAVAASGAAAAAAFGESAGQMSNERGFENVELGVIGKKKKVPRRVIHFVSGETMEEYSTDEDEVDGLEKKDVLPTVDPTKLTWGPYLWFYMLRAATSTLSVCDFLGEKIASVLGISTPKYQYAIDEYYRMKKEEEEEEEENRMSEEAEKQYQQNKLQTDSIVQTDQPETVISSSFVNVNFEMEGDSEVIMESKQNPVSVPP
Briefly: protein array.

The target of assay [3] is T4, methyltransferase like 21C (human, UniProt Q5VZV1 1-264).
T4 construct: on protein array; also called METTL21C
T4 sequence (Q5VZV1 whole entry): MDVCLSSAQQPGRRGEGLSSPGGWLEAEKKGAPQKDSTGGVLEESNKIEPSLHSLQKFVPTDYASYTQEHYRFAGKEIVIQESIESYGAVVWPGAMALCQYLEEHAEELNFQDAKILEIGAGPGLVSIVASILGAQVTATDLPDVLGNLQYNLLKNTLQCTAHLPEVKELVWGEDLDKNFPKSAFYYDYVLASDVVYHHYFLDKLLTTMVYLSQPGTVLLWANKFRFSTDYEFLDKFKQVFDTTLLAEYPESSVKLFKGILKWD
In words: protein array.

For assay [4], the target named is T5, Jupiter microtubule associated homolog 2 (human, UniProt Q9H910 1-190).
T5 construct: also called HN1L
T5 sequence: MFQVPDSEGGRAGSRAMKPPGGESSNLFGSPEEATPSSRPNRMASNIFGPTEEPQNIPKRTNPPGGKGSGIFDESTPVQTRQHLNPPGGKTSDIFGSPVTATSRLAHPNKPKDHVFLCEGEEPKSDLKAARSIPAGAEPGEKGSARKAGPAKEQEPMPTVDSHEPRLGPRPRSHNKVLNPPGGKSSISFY

The target of assay [5] is T6, tripartite motif containing 35, transcript variant 1 (human, UniProt Q9UPQ4 1-493, limits assumed).
T6 construct: on protein array; also called TRIM35
T6 sequence: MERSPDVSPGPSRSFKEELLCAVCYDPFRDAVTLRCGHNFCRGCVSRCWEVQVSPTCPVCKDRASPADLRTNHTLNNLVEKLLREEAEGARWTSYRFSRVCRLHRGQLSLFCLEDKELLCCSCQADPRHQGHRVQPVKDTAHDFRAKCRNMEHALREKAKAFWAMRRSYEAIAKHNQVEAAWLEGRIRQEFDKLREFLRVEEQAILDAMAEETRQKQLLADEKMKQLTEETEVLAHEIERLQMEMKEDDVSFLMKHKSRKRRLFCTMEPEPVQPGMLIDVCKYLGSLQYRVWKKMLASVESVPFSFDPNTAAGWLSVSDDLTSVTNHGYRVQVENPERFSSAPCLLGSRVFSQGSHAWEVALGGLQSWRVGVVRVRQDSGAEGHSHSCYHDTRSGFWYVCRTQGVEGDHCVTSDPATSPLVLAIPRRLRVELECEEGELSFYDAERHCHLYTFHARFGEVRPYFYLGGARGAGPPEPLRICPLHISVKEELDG
In words: protein array.

The target of assay [6] is T7, Killer cell lectin like receptor g2 (human, UniProt A4D1S0 1-409).
T7 construct: on protein array; also called KLRG2
T7 sequence: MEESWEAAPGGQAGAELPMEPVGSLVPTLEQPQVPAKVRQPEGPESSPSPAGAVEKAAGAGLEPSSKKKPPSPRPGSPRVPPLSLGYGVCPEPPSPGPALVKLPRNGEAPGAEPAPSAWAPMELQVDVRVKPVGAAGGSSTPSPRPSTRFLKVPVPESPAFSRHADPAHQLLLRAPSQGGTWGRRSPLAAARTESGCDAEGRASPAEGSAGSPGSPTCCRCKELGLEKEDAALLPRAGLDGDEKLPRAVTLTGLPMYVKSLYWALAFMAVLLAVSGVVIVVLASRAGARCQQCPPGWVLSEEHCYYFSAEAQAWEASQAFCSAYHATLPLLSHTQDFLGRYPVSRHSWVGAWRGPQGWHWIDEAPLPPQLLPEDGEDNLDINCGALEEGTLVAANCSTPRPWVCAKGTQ
Briefly: protein array.

Another assay addresses T8, FMR1 autosomal homolog 2 (human, UniProt P51116 1-673).
T8 construct: on protein array; also called FXR2
In words: protein array.

The target of assay [7] is T9, olfactory receptor family 6 subfamily Q member 1 (gene/pseudogene) (human, UniProt Q8NGQ2 1-317).
T9 construct: on protein array; also called OR6Q1
T9 sequence: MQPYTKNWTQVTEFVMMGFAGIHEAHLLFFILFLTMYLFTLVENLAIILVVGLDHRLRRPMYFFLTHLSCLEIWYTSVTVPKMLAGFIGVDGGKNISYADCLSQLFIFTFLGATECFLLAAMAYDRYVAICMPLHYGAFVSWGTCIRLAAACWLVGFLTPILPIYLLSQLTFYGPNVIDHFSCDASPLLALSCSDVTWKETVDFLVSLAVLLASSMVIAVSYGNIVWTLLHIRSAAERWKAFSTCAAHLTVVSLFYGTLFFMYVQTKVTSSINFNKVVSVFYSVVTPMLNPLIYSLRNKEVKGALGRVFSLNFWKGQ
Briefly: protein array.

T8 sequence (P51116 whole entry Q252H): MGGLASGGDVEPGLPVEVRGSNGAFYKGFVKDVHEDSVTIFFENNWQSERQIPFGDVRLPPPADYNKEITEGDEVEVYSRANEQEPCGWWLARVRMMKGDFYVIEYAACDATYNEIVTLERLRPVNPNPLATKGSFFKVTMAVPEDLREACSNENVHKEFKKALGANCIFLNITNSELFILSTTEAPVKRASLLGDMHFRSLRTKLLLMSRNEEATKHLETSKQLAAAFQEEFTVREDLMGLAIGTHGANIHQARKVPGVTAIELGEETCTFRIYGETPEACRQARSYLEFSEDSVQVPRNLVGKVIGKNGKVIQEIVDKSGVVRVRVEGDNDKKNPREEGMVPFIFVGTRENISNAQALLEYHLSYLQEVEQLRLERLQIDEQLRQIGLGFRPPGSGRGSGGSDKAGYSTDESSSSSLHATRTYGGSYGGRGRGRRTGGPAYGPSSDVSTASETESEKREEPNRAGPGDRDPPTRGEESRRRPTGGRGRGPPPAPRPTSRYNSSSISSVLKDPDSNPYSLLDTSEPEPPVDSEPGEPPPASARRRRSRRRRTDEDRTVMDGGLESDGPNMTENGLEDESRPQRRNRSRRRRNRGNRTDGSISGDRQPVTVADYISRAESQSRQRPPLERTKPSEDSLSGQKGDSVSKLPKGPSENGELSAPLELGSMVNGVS

B1: TLUA1004 (antibody, V domains shown)
VH: EVQLVESGGGLVQTGGSLRLSCSASGFTFNNYWMHWVRQAPGKGLLWLSRINTDGSRGHYDDSVQGRFTISRDNAKQTVYLQMDGLRAEDTAVYFCARDGYDFRAFDHWGQGVLVTVSS
VL: DIQMTQSPSSLSASVGDKVTMTCRASQFISVYVNWYQQKPGKAPKLLIYTASSLESGVSSRFSGGGSGTDFTLTIRSLQPEDFAIYYCQQTYSTPWTFGPGTRVEIKR
notes: VH/VL tied via antigen in summary, not by name in this stretch
For the molecule B1, the binding result with annexin A1 was “binds”.

B2: TTES1010 (antibody, V domains shown)
VH: EVQLVESGGGLVQPGGSLRLSCAASGFTFSSYSMNWVRQAPGKGLEWVSYISSSSSTIYYADSVKGRFTISRDNAKNSLYLQMNSLRAEDTAVYYCASLLGGDPDYWGQGTLVTVSS
VL: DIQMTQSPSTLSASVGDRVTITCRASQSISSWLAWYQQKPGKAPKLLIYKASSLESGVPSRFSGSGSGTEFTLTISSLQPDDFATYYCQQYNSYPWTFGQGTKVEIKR
Take B2: in assay [1], the binding result was “binds”.

B3: TLUA1016 (antibody, V domains shown)
VH: EVQLLESGGALVQPGGSLRLSCAVSGLTFNRFAMTWVRQAPGKGLEWVSHIGGSGGYTYYADSVKGRFTISRDNSKNTLYLQMNSLRAEDTAVYHCVKLKGIGAMWTYAMDVWGQGTTVTVSS
VL: QSVLTQPPSVSGAPGQRVTIPCTGSSSNLGAGYAVHWYQQLPATTPKLLIYANSSRPSGVPDRFSGSRSDTSASLAITGLQAEDEADYYCQSYDSSLSGYVFGTGTWVTVLS
notes: as for B1
B3: the binding result in assay [2] is “binds”.

B4: TLUS1003 (antibody, V domains shown)
VH: QVHLVQSGSEFKKPGASVKISCKTSGYTFTNYAMNWVRQAPGQGLEWVGWINTVTGIPGYAQGFTGRFIISLDTSGRTSYLQINSLQAEDTAVYYCARSGGFGWSRDLDYWGQGTLVTVSS
VL: DIVLTQSPLSLPVTPGEPASISCRSSQSLLHSNGVYYLDWYLLKPGQSPQLVIYMGSSRASGVPDRFSGSGSGTDFRLKISRVEAEDVGIYYCMQALQTPWTFGQGTKVEIKR
notes: as for B1
As for B4, the binding result in assay [3] was “binds”.

B5: TTES1011 (antibody, V domains shown)
VH: PVTLRESGPALVKPTQTLTLTCTFSGFSLSTSGMCVSWIRQPPGKALEWLARIDWDDDKYYSTSLKTRLTISKDTSKNQVVLTMTNMDPVDTATYYCARMQIVATTQTYYYYYGMDVWGQGTTVTVSS
VL: PAVLTQPPSVSGAPGQRVTISCTGSSSNIGAGYDVHWYQQLPGTAPKLLIYGNSNRPSGVPDRFSGSKSGTSASLAITGLQAEDEADYYCQSYDSSLSGSGVFGGGTKLTVLG
Consider B5, for which, in assay [4], the binding result is “binds”.

B6: TTES1001 (antibody, V domains shown)
VH: PVQLVQSGAEVKKPGSSVQVSCKGSGGTFSEYGISWLRQAPGQGLEWIGGIIPVLGIPNYAQKFRGRVTITADESTGSAYMEVSSLRSEDTAVYYCAREGLRLARGWFHPWGQGTLVTVTS
VL: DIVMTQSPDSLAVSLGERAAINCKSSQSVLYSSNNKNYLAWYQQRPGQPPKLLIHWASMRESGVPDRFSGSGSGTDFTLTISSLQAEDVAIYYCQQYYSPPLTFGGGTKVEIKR
With B6, in [1], the binding result is given as “binds”.

B7: TLUA1001 (antibody, V domains shown)
VH: PLQLQESGPGLVKPSETLSLTCSVSGGSIRSSAPFWGWIRQPPGKGLEWIGNIYYNGDTSYSPSLENRVTLFVDTSKNQFSLNLTSVTAADTAVYYCGRIMTPSIDLWGQGKLVTVSS
VL: EIVLTQSPGTLSLSPGERATLSCRASQSISSTYLVWYQQKPGQAPRLLIYAASYRATGIPDRFSGSGSGTDFILTISRLEPEDFAVYYCQQYGSSLTFGGGTKVEIKR
notes: as for B1
On to B7, for which the binding result (in assay [5]; in [6]; with FMR1 autosomal homolog 2) was “binds” in each case.

B8: TBLA1010 (antibody, V domains shown)
VH: EVQLVESGGGLVQPGRSLRLSCAASGFPFGDYAMHWVRQAPGKGLEWVSGIGWDSGGIGYADSVKGRFTISRDIAKNSLYLEINSLRPDDTALYYCAKAAATLPYFRFAMDVWGQGTPVTVSS
VL: EIVLTQSPGTLSLSPGERATLSCRASQSVSSSYLAWYQQKPGQAPRLLIFGASTRASGIPDRFSGRGSGTEFTLTISRLEPEDFAVYYCQQYDSSPFTFGPGTKVEIKR
notes: VH/VL only
For the molecule B8, in assay [7], the binding result was “binds”.
